The text below walks through data of patent US20240167098, “METHODS FOR PREDICTING TREATMENT OUTCOME TO CHECKPOINT INHIBITORS IN CANCER” (The Brigham and Women`s Hospital, Inc., published 2024).

For data set [1], the target named is T1, HNRNPH1 (hnRNP H1) isoform A (UniProt P31943 P31943:1-449).
T1 sequence: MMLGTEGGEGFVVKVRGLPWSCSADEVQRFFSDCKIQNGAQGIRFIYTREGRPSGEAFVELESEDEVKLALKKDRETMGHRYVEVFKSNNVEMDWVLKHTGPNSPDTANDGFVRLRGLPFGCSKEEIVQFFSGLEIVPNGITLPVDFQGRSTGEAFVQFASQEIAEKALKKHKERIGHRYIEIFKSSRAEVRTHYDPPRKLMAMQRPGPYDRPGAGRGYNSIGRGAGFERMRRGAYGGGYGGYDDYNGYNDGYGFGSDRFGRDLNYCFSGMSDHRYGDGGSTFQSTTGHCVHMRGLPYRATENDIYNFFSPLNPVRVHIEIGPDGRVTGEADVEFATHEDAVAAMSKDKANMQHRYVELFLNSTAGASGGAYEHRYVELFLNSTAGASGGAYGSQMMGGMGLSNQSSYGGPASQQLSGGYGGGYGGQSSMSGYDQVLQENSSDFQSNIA
Kind of data set: MST; value only in figure; 20 nM RNA, 50 mM Tris pH 8.0, 300 mM KCl, 0.02% NP-40, 10% glycerol, 0.5 mg/ml heparin, 22 C. Conditions: label: 3' FAM (MST). The protocol:
(§1) Microscale thermophoresis. MicroScale Thermophoresis experiments were performed according to the NanoTemper technologies protocol in a Monolith NT.115Pico (red/blue) instrument (NanoTemper Technologies). Serial dilutions of HNRNPH1 were done using a buffer containing 50 mM Tris [pH 8.0], 300 mM KCl, 0.02% NP-40, 10% Glycerol, and 0.5 mg/ml Heparin. RNA oligos were labeled with a FAM moiety at their […] (IDT). The RNA concentration was kept constant at 20 nM throughout the experiments. The RNA-protein mixture was incubated at room temperature for 15 mins before running into the MST instrument. The experiments were performed using 40% and 60% MST power and between 20%-80% LED power at 22_C. The MST traces were recorded using the standard parameters: 5 s MST power off, 30 s medium MST power on and 5 s MST power off. The reported measurement values are the combination of two effects: the fast, local environment dependent responses of the fluorophore to the temperature jump and the slower diffusive thermophoresis fluorescence changes. The data presented here are the average of 3 independent experiments. Average normalized fluorescence (%) was plotted against HNRNPH1 concentration to determine the binding constant (Kd). Ligand depletion model with one binding site was used (Using GraphPad Prism 8) to fit the binding which follows the following model: Y=Bmax*X/(Kd+X).

Data set [2] has as its target T1, HNRNPH1 (hnRNP H1) isoform A. Kind of data set: MST; value only in figure; same buffer as INCR1. The conditions noted are these: label: 3' FAM (MST); 32P (EMSA). As to the method:
as §1
In general terms: A gel shift assay detects complexes by their altered migration in electrophoresis.

As for GGGGCGGGCCGGUUGCCGGGGGGAGCUGGAGUCACGUGACGGC (ssRNA) [INCR1 RNA oligo], the binding result in data set [1] is “binds”.

On to AUACGUGGGAGUGGGGUGCUGAGCUGGGCAGGGUGAGAGUAU (ssRNA) [JAK2 RNA oligo], for which, in data set [2], the binding result is “binds”.

In the case of UAAGGGGUGAGGGGCAGGAGAAUGGGUAUGGAUGGAGGUAGA (ssRNA) [PD-L1 RNA oligo], the binding result in data set [2] is reported as “binds”.
